From a protein production outcome set (Wang et al. 2014)

Test: label from the status in PepcDB records
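Further: failed if final PepcDB status was selected cloned or expressed and not failed if soluble or beyond.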

Sequence	protein production
MRTERWWQDTSVTDHLFRQFGRFEFIQATRLLRHVPYHMDQTQWASEFQFGSSLALSFPKTEIEHLAQSDERIEMTSLVVGLTGTQGALPYTYTNKLKQSSRQQRREIQAFLGLFNHTLTVQYVDASLVHHLPVRYEVEQENHYLNILHALNGYISSHHQHNELDEYFAEFAGLMQGQNNTAHALTTMLTCIFKQKVMVKEFIREKFYLSDEQKTCLGGAQPSLLGINTFCGDTIEQIDGKIEIQIGPLKRKQYLDFLPSGRASTQLKHILATWCSPTLLVDLRLILDQDDVQPFCLDSVHQMGLGQGVFLTSQASNQDNQDTCYSLIGAVA	failed
ELPKKRELCKFYITGFCARAENCPYMHGDFPCKLYHTTGNCINGDDCMFSHDPLTEETRELLDKMLADDAEAGAEDEKEVEELKK	not failed
MATRPKTIWESFLSPVVRFLMDEDKWRRYAQSIDWEKESDRFRRTDVIIPSYYTSQNFHGIEGGYLNSSAAVTYDPITEYVLPPNETLVRQALIDGVKVQPRRILDLGCGTGSTTLMLKQAFPQADVIGLDLSPYMLVRAEDKARTADLDISWRHGNAEKTSFPNASFDLVTTSLLFHETPVEVSQTILQECFRLLVAGGQVIILDGNQKSLRQLNWLNDIFEEPYIREYAADNLDARMGAAGFVGVQTEDLWLIHQVTSGIKPILATDTNQIKDRQYMPAIDNNNLEGLESPAFGIVALEHHHHHH	failed
MTGPAENSTNFPGHRLKSPLPLRLATLSLLILYPVAWFAPLMRAGLLPIFGLSEISVITGLQSLWASDVALALIVTAFALFAPYLKTIGTALIQWNLLDPRAQPALHILGKLAMADIFLIALYITLAKGISYATIEAAWGLYLFTACILASIALGLLTERQIRKATR	failed
NKEFTWTSALTFTLNNEKVKSLIGGTADHVKNEDYYLSIGYPVNSFYAPKIDGMWQLGEETDAAAFGCAPGDIKINVPGMIKEADGKFYKVGDDGQPLTDKNGDIIYYTKDNKYTYSDADSQVLGHNAPKWTMGFQNSFTYKNFDLTIYAYFRWGQMINYEMLGWYDSTGKGNFPTYFNYWTESNPSNDFPALNANRETKSYIGYGSLNYVDGSFFKIKNITLGYTFPERLLKNAGISKCRLYATITNPLTVAKSHLLKDYDPEMNGALKYPLSKQLVFGVNVSF	failed
MTTPIRVVVWNEFRHEKKDEQVRAIYPEGMHTVIASYLAEAGFDAATAVLDEPEHGLTDEVLDRCDVLVWWGHIAHDEVKDEVVERVHRRVLEGMGLIVLHSGHFSKIFKKLMGTTCNLKWREADEKERLWVVAPGHPIVEGIGPYIELEQEEMYGEFFDIPEPDETIFISWFEGGEVFRSGCTFTRGKGKIFYFRPGHETYPTYHHPDVLKVIANAVRWAAPVNRGEIVFGNVKPLEPIKAKQGGVTQ	not failed
MQSFFDREFTFDRTARLFFIILLVGGIMAIVIGLRGILIPFCLSWILAYVLMPLVRFVQYRLHFRFRFLSVITVLVFISALIFFAILSLVPAVEEEVSKTITLLQQYRIDENLLQMLPAPIRKFLSESGSMNDLFKGISYEKLMENSKEIFGQLNKLVSGTISLFSYTTIFFIGVLYFIFILFDFEKLGKGFVNLFPVGHRIRVRSILKEVDKNMNSYFRGQALIALCVGILLSIGYKIIDFPLGVTLGLFIGMLNLIPYLQIVGLIPIVFLSVLKAAQTGQNFFVVLALGIGVMMIVQVIQDTILTPNIMGKRMGMSPAMILLSISIWGSLLGFFGLFIALPLTMSLYSVYKRYVIQDPKFIREENEETMPKKGLFRKHSRKEEK	failed
MSYLEYTVKSTPSGLRKILYMNWPLTLLLISVASAGFLMLYSVAGGSFSPWAEPQIKRFMAGLVVMTAVAMVPIWFWRNMAAVAYGGSLVLLVMVELFGAVGMGAQRWIDLGFMRLQPSELTKITLVMVLAAYYDWLPGKKTSRPLWVLVPVLIILVPTALVLKQPDLGTAILLLSAGGALMFLAGVHWAYFAAVIAAGVGLITAVFKSRGTDWQLLKDYQFRRIDTFLDPSSDPLGAGYHITQSKIALGSGGWSGRGFMQGTQSRLNFLPEKHTDFIFTTLAEEFGFIGGISLLSLYALIIAFCVATALATRDRFSSLVTLGIAVNFFLFFAVNMSMVMGLAPVVGVPLPMVSYGGSAMLVLLVAFGLVHSAHIHRPR	failed
MNNPGLFQARWNLGKLVLCNLLPLALLGFWLWPTGQALCTVFDEWLFHHLNAPLASNSTWLHIWAVASLRPFDIVVGLIMLGLLIRGDWVFKAVDVRRAFFGFLSILILMVVIRALFSKLVAVMNWQHNSPSMVLEGAVHMSDYFPGWEKTWELKDRSSQSFPGDHASVLLIWGLFMGIFSRSIGQFLIVWGLTLLFMMPRLVAGAHWGQDDYIGGVLLAVLALGWGYYTPYAARMSNFLLRLTHPLFNLLSRMPVLSRMSVVRASSLLR	failed
MRGDDMHIYELVSRDRTHPVRIYLLHSEYWTEDEFYNLLLEAFQRSSASDWHLQILEVSKYLVTAHGFVEAGGLQEIGFPGELSKTEVRRRINAFLGKDRSD	not failed
MSRKYLIRITELERLLSEQAEALRQKDQQLSLVEETEAFLRSALARAEEKIEEEEREIEHLRAQIEKLRRMLFGTRSEKLQREVEQAEAQLKQREQESDRYSGREDDPQVPRQLRQSRHRRPLPAHLPREIHRLEPEESCCPECGSELDYLGEVSAEQLELVSSALKVIRTVRVKKACTKCDCIVEAPAPSRPIERGIAGSGLLARVLTGKYCEHLPLYRQSEIFARQGIELSRALLSNWVDACCQLMTLLNDTLYRYVMNTRKVHTDDTPVKVLAPGRKKAKTGRIWTYVRDDRNAGSSEPPAVWFAYSPDRQGKHPVQHLRPFRGILQADAFSGYDRLFSAEREGGALTEVACWAHARRKIHDVYISSKSATAEEALKRISELYAIEDEIRGLPESERLAVRQQRSKVLLTSLHEWMVEKNGTLSKKSRLGEACSYVLNQWDALCYYSDDGLAEADNNAAERALRAVCLGKKNFMFFGSDHGGERGALLYGLIGTCRLNGIDPEAYLRHILSVLPEWPSNRVDELLPWNVVLTNK	failed
MRFLLMRSLLVHPCGGSIINVRSTTTSAQYVASRSRDPVFEKLMDKYKNLLKVIAIQDLTLANPTADPPSLSIEFLSRLSQKLHLNRGAASFLRKYPHIFHVLYDPVKAEPFCRLTDVAMEISRQEALAITATLSLVVDRLVRLLSMSISKSIPLRAVFKVWRELGLPDDFEDSVISKNPHLFKLSDGHESNTHILELVQEEEKRLEFEAAVEKWRVVECSKEDCSVDRTEIQFSFKHSYPPGMRLSKTFKAKVKEWQRLPYVGPYEDMVGKKKSRSGVMGIEKRAVAIAHEFLNLTVEKMVEVEKISHFRKCFGIDLNIRDLFLDHPGMFYVSTKGKRHTVFLREAYERGRLIDPNPVYDARRKLLDLVLLGRHAALSESGNTSMSEQE	failed
MSDIVLEVQSLHVYYGAIHAIKGIDLKVPRGQIVTLIGANGAGKTTTLSAIAGLVRAQKGKIIFNGQDITNKPAHVINRMGIALVPEGRRIFPELTVYENLMMGAYNRKDKEGIKRDLEWIFSLFPRLKERLKQLGGTLSGGEQQMLAIGRALMSRPKLLMMDEPSLGLAPILVSEVFEVIQKINQEGTTILLVEQNALGALKVAHYGYVLETGQIVLEGKASELLDNEMVRKAYLGVA	not failed
MKVTQNENLKLAQRGAFLSLVIYIILSIAKYMTGYVYDSAAVRADALNNMTDILVSVAVIVGLKISIKPADQNHPYGHLKSENISTLLVSFIIMFVGIQVIIENFPRLFTHDSHIPNFITIIISMISGLVMLCVFAINYRLSKRTKSSSLKSAAKDNLSDSLVSIGTAIGLMFTQIGFPIIDIILANILGLLIVYTGFGIFKESIFTLSDGFNEQDLEEYRLDILEVEDVIDVNNIKGRYHGSSIFIDVTIVVDPYLSLYEAHQICDKVEIHLHNKGISSVYVHPEPYTTKDEVK	failed
MNAPLLTQDTKRTLAWIAVAVAFLALLKLLAPTLTPFVFAGILSYILHPGVEWLQRHRVPRVLGVFLMILLLTVVAVALMLLILAVLQREIPAIREQLPGMLSKLNAAVTPRLAEMGVHVRFDFPGLRKLLTEQLAASPEDVMSTALNYLRVSGSAAVQVLGIVFLVPIVMFYLLMDWNMLIRRLEGAVPRRWISKTRELAAETDGLLSQYLRGQIIVMLVLAAYYSAGLALAGFDVALPIGIFTGLAVFIPYIGFGIGLILAILSALLQFGNLYGLLAVAVVYGVGQVLEGFYLTPRLVGERIGLHPLAVILALLAFGQLFGFFGILLALPISAVLLVGLRQIRQLYLGSKLYRD	failed
MEGITSFENLPEELKREILLRMSPNSLVTCSRVSKKLASMIRTKSFKELYLSRSMRCPRVLFAANGTITPHVLFTSFQEKEKPLLSSGEQRIITSLQGEFLFSPPVRGLICLVERESARIVICNPGTTKFLALPIVEADETTRIITHLGYDEQKDVFKVLCTRTKPETPHLVLTVGSGKEPWREIVCKFPHTVIGAGVFYRGTLYYLAAFHSKSIIMTFDVRSETFMPITSPDGVDLNQGSWRLVNYSQQGGFALVNESRGFIYQSNGGDAYLETWVWNVDTRKWSMNSILIRKWKDYAQDNEDYDYRFRGTQGTYELVFAPIRVKEDGSLTVILYNTDTQAFRRSKVQMMGEGHEFRFVDTFLDHVDSTLLI	failed
TSAGWVSVAIGPLPLRCWWSPPAGCRRDIDNISIENRAYIVLPEVFGVNAWVRSVADRLAAQGIPALAVPLFARTAPELELAYESCDLAQGRAHKDATTASQILSDVSAAVAWLQQRCPNAAIDLAGFCFGGHAALLAATLPQIRHSFDFYGAGVSRMRPGGGAPSLELLPQVSGQLTCVCGSADPLIPEEDRTTIRSALAAADPSGKRMSYIEIDGVDHGFMCEARGSFDADASALGWQLMLA	failed
MALAVYLVPLPGLRASGHAALALLVFAVTMWATEAVPLAVTSLIILFAQPLIGVESFENAVIGFANPILFLMIGGFIMAEAIRKSGLAQRFTYYLLGRLGTSPERGLFVSIFSTGLLSAWIENVVAFAMLLPIIKEIVDIMGCSEPEKGKSNYAKAMILGASFGSLAGGFGTEIGTAPNLMAAAYTSIPFLNWMIFGLPLSIAMLLVTWFLLMRIFPSEVRALENGDALIGERIRMMGSMSRDEKLSAGILLFAILLWVTAGFTGINSYSVSLIAAVMFIFAGVITWKDAQKNIDWGLVVFFGGALSLGSALLKTGAAAWIIDKLVGMLGSDPSTVIVMLVLMAVAVIITQVMSNIALSAILVPLSVTLASAQHQPIGVYAVPVAIACSLSFMLPMADPTVAMAYGSGYVKLRDIPRAGIPIIAVGIILTVLVITTLAAPFIS	failed
MSRKTMNPTTVTQQLQKTYQAVGDGLLSEAFGLVRASVPSQQSHFLTRIDDLENVYRQLLSYFAQGVKDEKQAEMLLYLKRKLIGLAAEVHRESVVAQGTGLFYDRLRYRRSIGFESLVTLLEQAETSTVRKQFDELVRLIFDSLWTADALTDEEAAALSHAGEYIRLVAASALTMALQQQWHSKKLYFLLEELARPDITADYRARLLVGVVLTLRSYPHHTRLYYNEIALRLEAVNEHIPLEPTLEMLSIRFLFACETESITKHLQTELFSDIQKIAPDLRKFGMGDTESIQETGNPEWMEELEKSGLGDKIREFSELQLEGADVMHSSFMNLKGSSFFREMHNWFLPFDAAHSRIAPLLEENAVLKQLVEAIGPQLCNSDRYSFIVSMESLPAALRGSAMGAVGGELDALKEQIKQDVPVGETGKLDTAIKSYLQDLYRFYKVCERKNEFDDIFLSPIPPDLPVLDRYLYKRDTLLHTAEFLFRRKHYDRAAKLLADLAEGKESATDTTLHQKLGFSLQQQGLFAQALAAYSRAELIDTENEWLLKRMAHCYRQLCRPAEAAEIYERLFERNPHEATLLLQRGNALVEDSRYDEALQCFFRYEFSVDDASKARRPIAWCLFLTGQYERAGDYYRTILESDDLSTFTDRLNAGHTSLAMGQIPVAIDHYLAGLKLTPNGKDEFLAAYTADIPVLLKAGIEDAVIRLIPEVLRLHPN	failed
TLHKERRIGRLSVLLLLNEAEESTQVEELERDGWKVCLGKVGSMDAHKVVAAIETASKKSGVIQSEGYRESHALYHATMEALHGVTRGEMLLGSLLRTVGLRFAVLRGNPYESEAEGDWIAVSLYGTIGAPIKGLEHETFGVGINHI	not failed
